Measurements reported in paper PMC4752584, “The C repressor of the P2 bacteriophage” (Journal of Biomolecular Nmr, 2015).

Biological target: the molecule itself
Test: NMR solution structure; 13C,15N-labelled P2 C at 6 mg/ml in 10 mM Na-phosphate pH 7.0, 150 mM NaCl, 10 % D2O; 13C- and 15N-NOESY-HSQC, 150 ms mixing time, 310 K, 900 MHz; CYANA2.1; homodimer interface found with aid from the crystal structure 2XCJ

B1: C-repressor of bacteriophage P2 (natural protein)
chain: MSNTISEKIVLMRKSEYLSRQQLADLTGVPYGTLSYYESGRSTPPTDVMMNILQTPQFTKYTLWFMTNQIAPEFGQIAPALAHFGQNETTSPHSGQKTG
notes: C repressor of bacteriophage P2, a 99 amino acid protein; wildtype; signals of residues up to 99 are reported; Uniformly 13C,15N labelled for the structure (grown in M9 with 13C-glucose and 15N-NH4Cl); No tag is mentioned; also called P2 C; P2C; source: E. coli BL21(DE3) with plasmid pEE679, purified (DEAE flow-through, HiTrap Heparin, Superdex 200)
binding result: binds
